Experimental data: patent US11471494B2, “Microorganisms programmed to produce immune modulators and anti-cancer therapeutics in tumor cells” (Synlogic Operating Company, Inc., priority 2017, dated 2022)

T1: murine CD47 on CT26 cells (Mus musculus, UniProt Q61735)
T1 construct: CT26 is a mouse colon carcinoma cell line which expresses CD47 on its cell surface; endogenous in cells; host or cells: CT26 mouse colon carcinoma cells
T1 sequence (Q61735 19-303): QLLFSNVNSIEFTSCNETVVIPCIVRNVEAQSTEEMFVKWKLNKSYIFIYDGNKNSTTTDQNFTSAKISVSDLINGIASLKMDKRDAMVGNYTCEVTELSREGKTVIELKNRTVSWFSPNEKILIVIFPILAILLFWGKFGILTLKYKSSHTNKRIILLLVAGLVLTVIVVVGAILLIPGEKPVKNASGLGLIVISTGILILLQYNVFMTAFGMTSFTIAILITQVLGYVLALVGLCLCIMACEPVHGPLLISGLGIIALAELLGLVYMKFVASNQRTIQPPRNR

T2: mCD40 (Mus musculus, UniProt P27512)
T2 sequence (P27512 20-289): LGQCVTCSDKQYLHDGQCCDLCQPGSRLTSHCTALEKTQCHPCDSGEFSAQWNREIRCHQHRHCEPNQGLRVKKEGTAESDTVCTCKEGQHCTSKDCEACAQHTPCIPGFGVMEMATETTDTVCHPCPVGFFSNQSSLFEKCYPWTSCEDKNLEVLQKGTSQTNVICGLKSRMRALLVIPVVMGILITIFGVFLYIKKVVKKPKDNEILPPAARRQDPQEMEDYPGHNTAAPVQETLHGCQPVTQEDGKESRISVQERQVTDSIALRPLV


Tests used:
[1] = molecular target: T1, murine CD47 on CT26 cells; experiment: Competition assay on CT26 cells (flow cytometry); assay type: cell-based; conditions: secreted FD6x2sirpα or FD6sirpαhIgG4
Procedure: Next, a competition assay was conducted to determine whether the murine SIRPα secreted by the genetically engineered bacteria could compete with the binding of a recombinant mSIRPα or an anti-CD47 antibody to murine CD47 on CT26 cells. CT26 cells were grown and flow cytometry protocol was conducted essentially as described above except that recombinant SIRPα (Rndsystems) or an anti-CD47 antibody (Biolegend) was added during the incubation of the secreted FD6×2sirpα or FD6sirpαhIgG4. FIG. 29 and FIG. 30 show the results of the competition with recombinant SIRPalpha and anti-CD47 antibody, respectively.

mCD40 = molecular target: T2, mCD40; experiment: CD40 ELISA binding assay of supernatants; conditions: clarified supernatant
anti-mCD40L antibody = experiment: CD40 ELISA binding assay of supernatants, detection by antibody; conditions: clarified supernatant
[2] = CD40 ELISA binding assay, control coatings; conditions: clarified supernatant

Competition with secreted SIRPalpha for binding to CD47 on CT26 cells [1]	ELISA signal, coating mCD40 (mCD40)	ELISA signal, coating Anti-mCD40L (anti-mCD40L antibody)	ELISA signal, coating IgG [2]	ELISA signal, coating PBS [2]	Molecule
able to compete					recombinant SIRPalpha: recombinant SIRPα (Rndsystems) (protein) KELKVTQPEKSVSVAAGDSTVLNCTLTSLLPVGPIRWYRGVGPSRLLIYSFAGEYVPRIRNVSDTTKRNNMDFSIRISNVTPADAGIYYCVKFQKGSSEPDTEIQSGGGTEVYVLAKPSPPEVSGPADRGIPDQKVNFTCKSHGFSPRNITLKWFKDGQELHPLETTVNPSGKNVSYNISSTVRVVLNSMDVNSKVICEVAHITLDRSPLRGIANLSNFIRVSPTVKVTQQSPTSMNQVNLTCRAERFYPEDLQLIWLENGNVSRNDTPKNLTKNTDGTYNYTSLFLVNSSAHREDVVFTCQVKHDQQPAITRNHTVLGFAHSSDQGSMQTFPDNNATHNWN
	0.639	0.825	0.052	0.05	Secreted CD40-L2: soluble form of murine CD40L secreted by SYN3367, in clarified supernatant (protein, left off: small tags and cut ends) MQRGDEDPQIAAHVVSEANSNAASVLQWAKKGYYTMKSNLVMLENGKQLTVKREGLYYVYTQVTFCSNREPSSQRPFIVGLWLKPSSGSERILLKAANTHSSSQLCEQQSVHLGGVFELQAGASVFVNVTEASQVIHRVGFSSFGLLKL
	0.231	0.394	0.052	0.049	Secreted CD40-L1: extracellular portion of murine CD40L secreted by SYN3366, in clarified supernatant (protein, left off: small tags and cut ends, extracellular portion of murine CD40L secreted by SYN3366, in clarified supernatant) HRRLDKVEEEVNLHEDFVFIKKLKRCNKGEGSLSLLNCEEMRRQFEDLVKDITLNKEEKKENSFEMQRGDEDPQIAAHVVSEANSNAASVLQWAKKGYYTMKSNLVMLENGKQLTVKREGLYYVYTQVTFCSNREPSSQRPFIVGLWLKPSSGSERILLKAANTHSSSQLCEQQSVHLGGVFELQAGASVFVNVTEASQVIHRVGFSSFGLLKL
